The text below walks through data of patent US20260201347A1, “ARTIFICIAL BIFUNCTIONAL ENZYME COMPRISING A MYELOPEROXIDASE ACTIVITY AND A GLUCOSE OXIDASE ACTIVITY AND APPLICATIONS THEREOF” (UNIVERSITÉ DE BORDEAUX, priority 2022, published 2026).

Holding throughout (assay type): biochemical, Rhodopirellula baltica / Penicillium amagasakiens
Conditions in all cases: fixed NaCl 20 mM, pH7.5, pH 7.5

Substrate in data set [1]: OC[C@H]1OC(O)[C@H](O)[C@@H](O)[C@@H]1O
Nature of the data set: Coupled active sites, HOCl production from glucose, APF assay (Table 9), linker LEGGEAEA
On the procedure:
(§1) Each experiment was performed in triplicate.
(§2) The activity of the two active sites was then assessed in conjunction to each other (FIG. 1).
(§3) Briefly, the aim was to measure the production of HOCl from glucose and NaCl as respective substrates of the enzymes, using the APF probe. Two types of kinetics were performed: • i) kinetics at various concentrations of glucose and a fixed concentration of NaCl, and • ii) kinetics at various concentration of NaCl and a fixed concentration of glucose.

Substrate in data set [2]: OC[C@H]1OC(O)[C@H](O)[C@@H](O)[C@@H]1O
Nature of the data set: Coupled active sites, HOCl production from glucose, APF assay (Table 9), linker GGGGGGGG
How it is done:
as §1, §2, §3

Substrate in data set [3]: OC[C@H]1OC(O)[C@H](O)[C@@H](O)[C@@H]1O
Put plainly: Coupled active sites, HOCl production from glucose, APF assay (Table 9), linker LEKRPEAEA
On the procedure:
as §1, §2, §3

B1: RbMPO-LEGGEAEA-GOx chimera (Rhodopirellula baltica myeloperoxidase, SEQ ID NO: 10; linker SEQ ID NO: 4; Penicillium amagasakiens glucose oxidase, SEQ ID NO: … (protein)
chain: MLFWSKRTRKHPGRKRRRLRSEQLESRQLLAADFGGYRHNIYDAEDVNDDGRVSAIDALLVINAMTSETSRDENVFTDVNGDGRRSALDALRVINRIERGDVFPIDTSGDEDLNTLLPEMPSEVRSIDGSGNNPNDHLWGSVGQRLIRMAPAAYGDGISTLAGANRPSAREVSNVLSAMNTSQVLNDRGLSAFVYVWGQFIDHDLGLTESDEHGEAIDISVPEGDLWFDPMGSGEAVIPMTRTPIADGTGTSVGNPAQQFNQITAFIDGSMVYGSDAATAERLRTFAGGRLAISDNGLLPMDESGMVIAGDVRASENVGLTAIQTLFVREHNRLADEIFAADPEATDEEIYQRARLVVASLIQSITYNEFLPALLGQRAMDSYRGYDASVNPGIANEFSTAAFRLGHSTLRDEVGFMSNDGRESKDEMELKDAFFHASMLEETGIDSLLKFDASVQAQEIDLAVVDSLRNFLFGPPGAGGLDLVAMNIQRGRDHGLSDYNTTRQAYGLDRVETFDQITGDVELQQKLASLYGTVDNIDLWVGLMAEDHQHDASVGELTGLIIADQFQRTRDGDRFFYKNVLTDSEVESIERSTLADLIERNTSVDGLQENVFFMQVELRGRVILASSIPPNTMPSEVREEEIRGVSGMAIELIDASGKLVDSTVSDQHGNYRFRALSETGDYQVRLSESGEAMDVLVAHGAERIRGLDFIVLALEGGEAEAYLPAQQIDVQSSLLSDPSKVAGKTYDYIIAGGGLTGLTVAAKLTENPKIKVLVIEKGFYESNDGAIIEDPNAYGQIFGTTVDQNYLTVPLINNRTNNIKAGKGLGGSTLINGDSWTRPDKVQIDSWEKVFGMEGWNWDNMFEYMKKAEAARTPTAAQLAAGHSFNATCHGTNGTVQSGARDNGQPWSPIMKALMNTVSALGVPVQQDFLCGHPRGVSMIMNNLDENQVRVDAARAWLLPNYQRSNLEILTGQMVGKVLFKQTASGPQAVGVNFGTNKAVNFDVFAKHEVLLAAGSAISPLILEYSGIGLKSVLDQANVTQLLDLPVGINMQDQTTTTVSSRASSAGAGQGQAVFFANFTETFGDYAPQARDLLNTKLDQWAEETVARGGFHNVTALKVQYENYRNWLLDEDVAFAELFMDTEGKINFDLWDLIPFTRGSVHILSSDPYLWQFANDPKFFLNEFDLLGQAAASKLARDLTSQGAMKEYFAGETLPGYNLVQNATLSQWSDYVLQNFRPNWHAVSSCSMMSRELGGVVDATAKVYGTQGLRVIDGSIPPTQVSSHVMTIFYGMALKVADAILDDYAKSA
notes: 6His (in the pET21a vector behind the XhoI site); made in house; host or cells: E. coli BL21Star (DE3)
B1: the Km (commonly the substrate concentration at which the rate is half of its maximum) turned out to be 629 ± 295 µM in data set [1] (other: dimer/monomer), 65600 ± 14200 µM in data set [1] (other: excluded), 8820 ± 4870 µM in data set [1] (other: monomer 1) and 1380 ± 671 µM in data set [1] (other: monomer 2). Besides, the kcat (commonly the number of substrate molecules converted per active site and unit of time at saturation) was determined as 0.000315 s⁻¹ in data set [1] (other: dimer/monomer), 0.00056 s⁻¹ in data set [1] (other: excluded), 0.00123 s⁻¹ in data set [1] (other: monomer 1) and 0.00377 s⁻¹ in data set [1] (other: monomer 2). Besides, the kcat/Km (commonly the second-order rate constant that governs catalysis at low substrate concentration) was determined as 0.5 ± 0.259 M⁻¹ s⁻¹ in data set [1] (other: dimer/monomer), 0.00853 ± 0.00215 M⁻¹ s⁻¹ in data set [1] (other: excluded), 0.139 ± 0.095 M⁻¹ s⁻¹ in data set [1] (other: monomer 1) and 2.73 ± 1.5 M⁻¹ s⁻¹ in data set [1] (other: monomer 2).

B2: RbMPO-GGGGGGGG-GOx chimera (Rhodopirellula baltica myeloperoxidase, SEQ ID NO: 10; linker SEQ ID NO: 9; Penicillium amagasakiens glucose oxidase, SEQ ID NO: … (protein)
chain: MLFWSKRTRKHPGRKRRRLRSEQLESRQLLAADFGGYRHNIYDAEDVNDDGRVSAIDALLVINAMTSETSRDENVFTDVNGDGRRSALDALRVINRIERGDVFPIDTSGDEDLNTLLPEMPSEVRSIDGSGNNPNDHLWGSVGQRLIRMAPAAYGDGISTLAGANRPSAREVSNVLSAMNTSQVLNDRGLSAFVYVWGQFIDHDLGLTESDEHGEAIDISVPEGDLWFDPMGSGEAVIPMTRTPIADGTGTSVGNPAQQFNQITAFIDGSMVYGSDAATAERLRTFAGGRLAISDNGLLPMDESGMVIAGDVRASENVGLTAIQTLFVREHNRLADEIFAADPEATDEEIYQRARLVVASLIQSITYNEFLPALLGQRAMDSYRGYDASVNPGIANEFSTAAFRLGHSTLRDEVGFMSNDGRESKDEMELKDAFFHASMLEETGIDSLLKFDASVQAQEIDLAVVDSLRNFLFGPPGAGGLDLVAMNIQRGRDHGLSDYNTTRQAYGLDRVETFDQITGDVELQQKLASLYGTVDNIDLWVGLMAEDHQHDASVGELTGLIIADQFQRTRDGDRFFYKNVLTDSEVESIERSTLADLIERNTSVDGLQENVFFMQVELRGRVILASSIPPNTMPSEVREEEIRGVSGMAIELIDASGKLVDSTVSDQHGNYRFRALSETGDYQVRLSESGEAMDVLVAHGAERIRGLDFIVLAGGGGGGGGYLPAQQIDVQSSLLSDPSKVAGKTYDYIIAGGGLTGLTVAAKLTENPKIKVLVIEKGFYESNDGAIIEDPNAYGQIFGTTVDQNYLTVPLINNRTNNIKAGKGLGGSTLINGDSWTRPDKVQIDSWEKVFGMEGWNWDNMFEYMKKAEAARTPTAAQLAAGHSFNATCHGTNGTVQSGARDNGQPWSPIMKALMNTVSALGVPVQQDFLCGHPRGVSMIMNNLDENQVRVDAARAWLLPNYQRSNLEILTGQMVGKVLFKQTASGPQAVGVNFGTNKAVNFDVFAKHEVLLAAGSAISPLILEYSGIGLKSVLDQANVTQLLDLPVGINMQDQTTTTVSSRASSAGAGQGQAVFFANFTETFGDYAPQARDLLNTKLDQWAEETVARGGFHNVTALKVQYENYRNWLLDEDVAFAELFMDTEGKINFDLWDLIPFTRGSVHILSSDPYLWQFANDPKFFLNEFDLLGQAAASKLARDLTSQGAMKEYFAGETLPGYNLVQNATLSQWSDYVLQNFRPNWHAVSSCSMMSRELGGVVDATAKVYGTQGLRVIDGSIPPTQVSSHVMTIFYGMALKVADAILDDYAKSA
notes: as for B1
Consider B2, for which the Km in data set [2] (other: dimer/monomer) is 2060 ± 1290 µM; in data set [2] (other: excluded) it was 2760 ± 1060 µM; in data set [2] (other: monomer), 6196 ± 951 µM; in data set [2] (other: trimer) it was 3610 ± 2110 µM. Also, the kcat is 0.00155 s⁻¹ in data set [2] (other: dimer/monomer), 0.000102 s⁻¹ in data set [2] (other: excluded), 0.000512 s⁻¹ in data set [2] (other: monomer) and 0.000589 s⁻¹ in data set [2] (other: trimer). The kcat/Km in data set [2] (other: dimer/monomer) was found to be 0.754 ± 0.545 M⁻¹ s⁻¹; in data set [2] (other: excluded), 0.037 ± 0.017 M⁻¹ s⁻¹; in data set [2] (other: monomer), 0.083 ± 0.015 M⁻¹ s⁻¹; in data set [2] (other: trimer), 0.163 ± 0.129 M⁻¹ s⁻¹.

B3: RbMPO-LEKRPEAEA-GOx chimera (Rhodopirellula baltica myeloperoxidase, SEQ ID NO: 10; linker SEQ ID NO: 8; Penicillium amagasakiens glucose oxidase, SEQ ID NO: … (protein)
chain: MLFWSKRTRKHPGRKRRRLRSEQLESRQLLAADFGGYRHNIYDAEDVNDDGRVSAIDALLVINAMTSETSRDENVFTDVNGDGRRSALDALRVINRIERGDVFPIDTSGDEDLNTLLPEMPSEVRSIDGSGNNPNDHLWGSVGQRLIRMAPAAYGDGISTLAGANRPSAREVSNVLSAMNTSQVLNDRGLSAFVYVWGQFIDHDLGLTESDEHGEAIDISVPEGDLWFDPMGSGEAVIPMTRTPIADGTGTSVGNPAQQFNQITAFIDGSMVYGSDAATAERLRTFAGGRLAISDNGLLPMDESGMVIAGDVRASENVGLTAIQTLFVREHNRLADEIFAADPEATDEEIYQRARLVVASLIQSITYNEFLPALLGQRAMDSYRGYDASVNPGIANEFSTAAFRLGHSTLRDEVGFMSNDGRESKDEMELKDAFFHASMLEETGIDSLLKFDASVQAQEIDLAVVDSLRNFLFGPPGAGGLDLVAMNIQRGRDHGLSDYNTTRQAYGLDRVETFDQITGDVELQQKLASLYGTVDNIDLWVGLMAEDHQHDASVGELTGLIIADQFQRTRDGDRFFYKNVLTDSEVESIERSTLADLIERNTSVDGLQENVFFMQVELRGRVILASSIPPNTMPSEVREEEIRGVSGMAIELIDASGKLVDSTVSDQHGNYRFRALSETGDYQVRLSESGEAMDVLVAHGAERIRGLDFIVLALEKRPEAEAYLPAQQIDVQSSLLSDPSKVAGKTYDYIIAGGGLTGLTVAAKLTENPKIKVLVIEKGFYESNDGAIIEDPNAYGQIFGTTVDQNYLTVPLINNRTNNIKAGKGLGGSTLINGDSWTRPDKVQIDSWEKVFGMEGWNWDNMFEYMKKAEAARTPTAAQLAAGHSFNATCHGTNGTVQSGARDNGQPWSPIMKALMNTVSALGVPVQQDFLCGHPRGVSMIMNNLDENQVRVDAARAWLLPNYQRSNLEILTGQMVGKVLFKQTASGPQAVGVNFGTNKAVNFDVFAKHEVLLAAGSAISPLILEYSGIGLKSVLDQANVTQLLDLPVGINMQDQTTTTVSSRASSAGAGQGQAVFFANFTETFGDYAPQARDLLNTKLDQWAEETVARGGFHNVTALKVQYENYRNWLLDEDVAFAELFMDTEGKINFDLWDLIPFTRGSVHILSSDPYLWQFANDPKFFLNEFDLLGQAAASKLARDLTSQGAMKEYFAGETLPGYNLVQNATLSQWSDYVLQNFRPNWHAVSSCSMMSRELGGVVDATAKVYGTQGLRVIDGSIPPTQVSSHVMTIFYGMALKVADAILDDYAKSA
notes: as for B1
On to B3, for which the values for the Km in data set [3] (other: dimer/monomer), in data set [3] (other: excluded) and in data set [3] (other: trimer) were 2160 ± 1480 µM, 22600 ± 6500 µM and 1056 ± 496 µM, respectively. For the same protein, the kcat in data set [3] (other: dimer/monomer) came to 0.000642 s⁻¹; in data set [3] (other: excluded) it was 0.000365 s⁻¹; in data set [3] (other: trimer) it was 0.000156 s⁻¹. For the same protein, the kcat/Km in data set [3] (other: dimer/monomer) stood at 0.298 ± 0.235 M⁻¹ s⁻¹; in data set [3] (other: excluded) it was 0.016 ± 0.005 M⁻¹ s⁻¹; in data set [3] (other: trimer), 0.148 ± 0.081 M⁻¹ s⁻¹.
